Test results taken from US20240218057A1 (ROCKEFELLER UNIVERSITY, published 2024).

B1: C935 (antibody, V domains shown)
VH: QVQLVESGGGVVQPGRSLRLSCAATGFTFSSYGMHWVRQAPGKGLEWVALIWYDGSNQYYVDSVKGRFTISRDNSKKTLYLQMNSLRVEDTAVYYCARDFSNSDMVTLSDAFDIWGQGTMVTVSS
VL: DIQLTQSPSFLSASVGDRVTIACRASQGISSYSSYLAWYQQKPGKAPKLLIYAASTLQSGVPSRFSGSGSGTEFTLTISSLQPEDFATYYCQQLNSYPLFTFGPGTKVDIK
B2: C951 (antibody, V domains shown)
VH: QVQLQESGPRLVKPSGTLSLTCAVSGGSISTTNWWSWVRQPPGKGLEWIGEIHHSGNTNYNPSLKSRVTISVDRSKNQFSLKLSSVTAADTAVYFCARDGGRPGDPFDIWGQGTMVTVSS
VL: QSALTQPASVSGSPGQSITISCTGTSSDVGGYNYVSWYQQHPGKAPNLMIYDVSDRPSGVSNRFSGSKSGNTASLTISGLQAEDEADYYCNSFTSNSTRVFGTGTKVTV
B3: C941 (antibody, V domains shown)
VH: QVQLVQSGAEVKKPGSSVKVSCKASGGTSRSYPISWVRQAPGQGLEWMGRIIPIVGTANYAQRFQGRVTITADESTGTAYMELSSLRSEDTAVYYCARNRGYSDYGSVYYFDYWGQGTLVTVSS
VL: QSVLTQPPSVSGAPGQRVTISCTGSSSNIGAGYDVHWYQQLPGAAPKLLIYRNINRPSGVPDRFSGSKSGTSASLAITGLQADDEADYYCQSYDSSLSGSVFGGGTKLTV
B4: C942 (antibody, V domains shown)
VH: QVQLVESGGGVVQPGRSLRLSCAASGFTFSSYVMHWVRQAPGKGLEWVAIISSDGNTKYYADSVKGRFTISRDNSKNTLYLQMNSVRTDDTAVYYCARDGTTMTPTDLLTDWGQGTLVTVSS
VL: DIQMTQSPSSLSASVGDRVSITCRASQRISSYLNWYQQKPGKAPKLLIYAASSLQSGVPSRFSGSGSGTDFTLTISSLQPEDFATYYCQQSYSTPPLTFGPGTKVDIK
B5: C926 (antibody, V domains shown)
VH: QVQLVESGGGVVQPGRSLRLSCAASGFGLITYSMHWVRQAPGKGLEWVGLISFDGNTTYYADSVRGRFTISRDNLANILYLQMNSLRPDDTALYYCARDKRGVIRGLLNFWGQGSLVTVSS
VL: DIVMTQSPDSLAVSLGERATINCKSSQSLLPSSNSNNYLAWYQQKSGQPPNLLIYWASTRESGVPDRFSGSGSETDFSLTISNLQAEDVAVYYCQQYYNTPHTFGGGTKVEI
B6: C938 (antibody, V domains shown)
VH: QVQLVESGGGVVQPGRSLRLSCAASGFTFRSHAMHWVRQAPGKGLEWVAIISSDGFNKYYADSVKGRFTISRDNSKNTLYVHMNSLRVEDTAIYYCASGLLWFETREISGAPDYGMAVWGQGATVTVSS
VL: DIQMTQSPSSLSASVGDRVTITCRASQNISNFLNWYQQKPGKAPKLLIYAASSLQSGVPSRYSGSGSGTDFTLTISSLQAEDFATYYCQQSYSTPLTFGGGTKVEIK
B7: C939 (antibody, V domains shown)
VH: QVQLVESGGGVVQPGRSLRLSCAASGFTFSSYAMHWVRQAPGKGLESVALISHDGSNKYHADSVKGRLTISRDTSKNTLYLQMDSLRPEDTAVYYCASGLLWFETAGGSGAPDYGMAVWGQGTTVTVSS
VL: DIQMTQSPSSLSASVGDRVTITCRASQSISTYLNWYQQKPGRAPKFLIYAASSLQSGVPSRFSGSGSGTDFTLIISGLQPEDFATYFCQQSYNTPLTFGGGTKVEIK
B8: C913 (antibody, V domains shown)
VH: EVQLVESGGVVVQPGGSLRLSCAASGFTFDDYSMHWVRQVPGKGLEWIAVIFWDGTSTYYADSVKGRFTISRDNSKKSLYLQMNSLRSEDTALYYCAKDSEDCSSTSCYVDHWGQGTLVTVSS
VL: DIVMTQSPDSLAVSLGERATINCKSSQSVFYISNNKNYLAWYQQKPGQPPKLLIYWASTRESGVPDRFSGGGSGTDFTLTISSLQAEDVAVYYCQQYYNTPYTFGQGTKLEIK
B9: C940 (antibody, V domains shown)
VH: QVQLQESGSGLVKPSQTLSLTCAVSGGSASSGGYSWSWIRQPPGKGLEWIGYIYHSGSTYYNPSLKSRVTISLDRTKKQFSLKLSSVTAADTAVYYCARFCLSGSHYLFAFDIWGPGTMVTVSS
VL: QSALTQPASVSGSPGQSITISCTATSSDVGGYNFVSWYQQYPGKVPKLLIYDVGNRPSGVSNRFSGSKSGNTASLTISGLQAEDEADYYCSSYTNSSTFFGGGTKLTVL

These binders were tested against T1, SARS-COV-2 RBD (SARS-COV-2, UniProt P0DTC2 319-539) (assay: ELISA, RBD coated on plate).
T1 construct: also called WT RBD
B1 gave an EC50 of 2.86 ng/mL.
For B2, the EC50 was 0.81 ng/mL.
With B3 the EC50 was 1.92 ng/mL.
Work on B4 yielded an EC50 of 2.13 ng/mL.
Work on B5 yielded an EC50 of 4.72 ng/mL.
Binder B6 has an EC50 of 2.63 ng/mL.
Work on B7 yielded an EC50 of 3.62 ng/mL.
B8 gave an EC50 of 2.58 ng/mL.
B9 showed an EC50 of 1.8 ng/mL.
